Test results: article PMC6506550 (Nature Communications, 2019)

B1: CR9501 IgG (antibody, V domains shown)
VH: QVQLVQSGPGLVKPSQTLALTCTVSGASINSDNYYWTWIRQRPGGGLEWIGHISYTGNTYYTPSLKSRLSMSLETSQSQFSLRLTSVTAADSAVYFCAACGAYVLISNCGWFDSWGQGTQVTVSS
VL: EIVMTQSPSSLSASIGDRVTITCQASQDISTYLNWYQQKPGQAPRLLIYGASNLETGVPSRFTGSGYGTDFSVTISSLQPEDIATYYCQQYQYLPYTFAPGTKVEIK
notes: also called CF-647-labeled CR9501 IgG
B2: CR9501 Fab (Fab, V domains shown)
VH: B1 VH
VL: B1 VL

Columns and labels:
Experiment in all cases: flow cytometry on cells
[1] = target: full-length wild-type RSV F on the cell surface (respiratory syncytial virus (strain not stated)) (UniProt P03420)
[2] = target: T1, full-length wild-type RSV F on the cell surface (Respiratory syncytial virus, …, UniProt P03420); settings: one partner purified
T1 construct: also called full-length wild-type F; full-length RSV F; source: FreeStyle 293-F or HeLa cells, cotransfected with furin, on the cell surface

[3] = target: T2, full-length RSV F with the PR-DM stabilizing mutations, on the cell surface (Respiratory syncytial virus, strain not …, UniProt P03420, N67I | S215P); settings: one partner purified
T2 construct: source: FreeStyle 293-F, cotransfected with furin, on the cell surface

[4] = target: T3, full-length RSV F with the DS-Cav1 stabilizing mutations, on the cell surface (Respiratory syncytial virus, strain not …, UniProt P03420, S155C | S290C | S190F | V207L); settings: one partner purified
T3 construct: source: FreeStyle 293-F, cotransfected with furin, on the cell surface

[5] = target: T4, RSV F variant in which the cytoplasmic tail was replaced with a Foldon trimerization motif, on the cell … (Respiratory syncytial virus, strain not …, UniProt P03420, stabilised); settings: one partner purified
T4 construct: source: FreeStyle 293-F or HeLa cells, cotransfected with furin, on the cell surface; not shown: Foldon trimerization motif, C-terminal, kept

Molecule	percent of CF-647-labeled CR9501 IgG binding blocked [1] [%]	binding result [2]	binding result [3]	binding result [4]	binding result [5]
motavizumab Fab	< 20	–	–	–	–
B1	–	binds	binds	binds	binds
B2	–	–	–	–	binds
